Test results reported in patent publication US8951758B2, “GH61 glycoside hydrolase protein variants and cofactors that enhance GH61 activity” (Codexis, Inc., priority 2011, dated 2015).
Where a chain is given by its changes, count along the chain named. In names and notes the source's numbering stands.

Experiments:
[1] = system: acid-pretreated corn stover; test: Shake flask saccharification with CF-416 whole broth enzymes with 0 or 50 μM CuSO4 at pH 5.0 or pH 6.0 (FIG. 4); format: biochemical; conditions: 50 μM vs 0 CuSO4; for increase in glucose yields: CF-416 whole broth enzymes 0.81%, 72 hours, 55° C.
Method: This Example describes experiments designed to determine the effects of added copper in saccharification reactions. The saccharification reactions were run in 30g shake flasks (250 mL flasks) using 82g/kg glucan of acid-pretreated corn stover and whole broth enzymes produced by M. thermophila strain CF-416 (produced using standard methods known in the art) at a 0.81% total enzyme load with respect to glucan. […] A pH trim was also performed using 2M NaOH at time intervals of 1, 4, 7, 22, 24 29, 46, 52, 70, 75 and 96 hrs, to maintain the pH at the desired value of pH 5.0 or pH 6.0. Samples were removed at 72 hours and the total amount of glucose in the reaction mixture was determined using standard HPLC methods and equipment as known in the art.

[2] = system: AVICEL® PH microcrystalline cellulose; test: GH61a Variant 1 plus beta-glucosidase with reducing agents or pretreatment filtrate on AVICEL (FIG. 5A); format: biochemical; conditions: 0.3% GH61a Variant 1, 0.08% BGL, 30 μM CuSO4, 48 h, pH 5, 55° C.
Method: (§1) This Example provides experiments conducted to determine the effect of adding reducing agents (e.g., gallic acid and ascorbic acid) to saccharification reactions. In these experiments, enhancement of GH61 activity was tested using Variant 1 (SEQ ID NO:5) in the presence of reducing agents (specifically, ascorbic acid or gallic acid) and pretreatment filtrate, which contains various reducing agents from lignin degradation. Reactions were performed on cellulosic substrates, AVICEL® PH microcrystalline cellulose and phosphoric acid swollen cellulose (PASC), with purified M. thermophila-produced GH61 Variant 1 and beta-glucosidase at 0.3% and 0.08% respectively, with respect to substrate glucan mass, and 128 mM sodium acetate buffer (pH 5) supplemented with 30 μM CuSO4. Thus, reactions were performed with 0.3% GH61a and 0.08% BGL, where % enzyme loads are with respect to substrate glucan mass (36 g/L AVICEL® cellulose and 5 g/L PASC). Background (negative) controls were beta-glucosidase-only reactions tested in the absence of GH61a. Glucose production after 48 h incubation at pH 5, 55° C. was determined by glucose oxidase/peroxidase-based or HPLC-based glucose assay glucose assay, using methods known in the art. […] Filtrate dilutions are indicated in this Figure, where undiluted filtrate equals 72% of the total reaction volume. […]

[3] = system: phosphoric acid swollen cellulose (PASC); test: GH61a Variant 1 plus beta-glucosidase with reducing agents or pretreatment filtrate on PASC (FIG. 5B); format: biochemical; conditions: 0.3% GH61a Variant 1, 0.08% BGL, 30 μM CuSO4, 48 h, pH 5, 55° C.
Method: as §1

[4] = system: M. thermophila CF-416 whole broth cellulases; conditions: 87g/kg glucan, 0.81% enzyme load, pH 5.0, 55° C., 50 μM CuSO4, 72 hours
[5] = system: pre-treated wheat straw; test: Biomass assay of a cellulase mixture (GH61a, CBH1a, CBH2b, BGL) with surfactants (FIG. 6); format: biochemical; conditions: BGL at 0.3%, 0.15%, 0.08%, 55° C., 72 hours, pH 5
Method: This example illustrates the enhancement of overall saccharification yield with the addition of surfactants such as TWEEN®-20 and PEG-4000. Experiments were designed to monitor the enhancement in cellulase activity with different concentrations of TWEEN®-20 or PEG-4000 in the biomass assay. The biomass assay was performed in a total volume of 90 μL, including 10 mg of pre-treated wheat straw, 64.8 μL (72% by volume) of filtrate (or H2O for no filtrate conditions), and 11.6 μl, of a mixture of sodium acetate buffer (pH 5.0, supplemented with CuSO4), M. thermophila-produced cellobiohydrolase 1a (CBH1a), cellobiohydrolase 2b (CBH2b), beta-glucosidase (BGL), and glycoside hydrolase type 61 (GH61a). The final concentration of sodium acetate was 128 mM (with 30 μM CuSO4) and the enzyme loads of CBH1a, CBH2b, BGL and GH61a were 0.15%, 0.15%, 0.08% and 0.3% with respect to the substrate glucan mass in the biomass substrate, respectively. Water was used in place of the enzymes as a negative control. […]
Data shown are total glucose produced by a mixture of GH61a, CBH1a, CBH2b, and BGL at 0.3%, 0.15%, 0.15%, and 0.08% with respect to the substrate glucan mass in the biomass substrate, respectively. In this Figure, TWEEN®-20 concentrations are expressed as % total reaction volume.
In this Figure, PEG-4000 concentrations are expressed as % total reaction volume.

[6] = system: crystalline cellulose; test: Saccharification of crystalline cellulose by cellulase enzymes in culture broth from M. thermophila cells with GH61a added (FIG. 1); format: biochemical; conditions: GH61a added to cellulases of M. thermophila culture broth
Method: FIG. 1 provides results of an experiment using recombinantly produced GH61a protein having the sequence shown in SEQ ID NO:2. The protein was tested for its ability to promote the activity of cellulases present in culture broth of M. thermophila.
A protein from a strain of M. thermophila having the amino acid sequence provided in SEQ ID NO:2 was previously identified as having GH61 activity. It was designated “GH61a”.

[7] = system: pretreated corn stover (PCS); test: Supplementation of CF-416 whole cellulase broth with single purified enzymes, saccharification of pretreated corn stover; format: biochemical; conditions: 0.4% single enzyme added to 0.5% CF-416 whole cellulase broth base; 74 g/L glucan, pH 5.0, 55° C., 50 μM copper
Method: (§2) In this Example, M. thermophila-produced and purified GH61a, GH61p, GH61f, GH61n, CBH1a, CBH2b, AXE3, FAE, and Xyl3, were used to supplement the activity present in culture broths (i.e., “whole broth cellulase base”) of the M. thermophila strain CF-416 prepared using standard methods known in the art. The broth cellulase base was fixed to 0.5% protein and the single purified enzyme was added at 0.4% (wt added protein/wt glucan) to the saccharification reactions. The whole cellulase broth base and individual enzymes were characterized by standard BCA assays for total protein quantification.
(§3) The saccharification reactions were carried out at 74 g/L glucan load of pretreated wheat straw (PWS) or pretreated corn stover (PCS) at pH 5.0, 55° C. at 950 rpm in the presence of 50 μM copper in high throughput (HTP) 96 deep well plates. Glucose analysis was carried out by the glucose oxidase assay as described above. In each case, the fold improvement was calculated using the formula Fold Improvement=[Total Glucose Production with addition of 0.4% single enzyme to the whole cellulase broth base]/[glucose production from the 0.5% whole cellulase broth base]. In this Table, the fold improvements were ranked from 0 to 3; fold improvements less than 1.2× are indicated by “0,” fold improvements of >1.2 to <1.5 are indicated by “1,” fold improvements of ≧1.5× to <1.7× improvements are indicated by “2,” and fold improvements ≧1.7 are indicated by “3.”

[8] = system: pretreated wheat straw (PWS); test: Supplementation of CF-416 whole cellulase broth with single purified enzymes, saccharification of pretreated wheat straw; format: biochemical; conditions: 0.4% single enzyme added to 0.5% CF-416 whole cellulase broth base
Method: as §2, §3

[9] = system: pre-treated wheat straw; test: Biomass assay of GH61a pre-incubated with or supplemented by copper(II) (FIG. 3); format: biochemical; conditions: pre-incubated with copper(II) (CuSO4) 0 to 100 μM, 72 h, pH 5, 55° C.
Method: Purified M. thermophila-produced GH61a or S. cerevisiae supernatant containing M. thermophila-GH61a was pre-incubated with different amounts of copper(II) (CuSO4) at concentrations of 0 to 100 μM at ambient temperature for 30 min. The biomass assay was then performed in a total volume of 300 μL, in the presence of 10 mg of pre-treated wheat straw, using 261 μL of copper-treated GH61 samples, 39 μL of sodium acetate buffer (pH 5), M. thermophila-produced CBH1a, CBH2b and β-glucosidase. The final concentration of sodium acetate was 120 mM and the enzyme loads of CBHs and β-glucosidase (CBH1a and CBH2b in 1:1 ratio) were 0.01% and 0.02% with respect to substrate glucan mass in the biomass substrate, respectively. Background (negative) controls were obtained by using either water or media supernatant from cultures of S. cerevisiae cells without the GH61a gene in the plasmid. Thus, the negative controls represent activities of CBH1a, CBH2b and beta-glucosidase in the absence of GH61a. The reaction was incubated at 55° C. for 72 hours with shaking.
Some experiments were also performed without pre-incubating GH61 with copper(II), but instead, by directly adding different amounts of copper(II) (CuSO4) to the biomass assay reactions as described herein.
Biomass assays were performed with (A) S. cerevisiae-produced M. thermophila GH61a Variant 5, and (B) M. thermophila-produced wild-type GH61a. Glucose production after 72 h incubation at pH 5, 55° C. was determined by the glucose assay. The data in this Figure indicate GH61a-only activity, in which the amount of glucose produced in control reaction containing CBH and β-glucosidase was subtracted from the total amount of glucose produced in the reactions with GH61a. In this Figure, N=4; and the error bars represent ±1 standard deviation. Copper concentrations shown are with respect to the total reaction volume.

`O=S(=O)([O-])[O-].[Cu+2]` [copper(II), CuSO4] was tested, and the “total amounts of C5 sugars produced” value ([1]; FIG. 4, Panel B) was “may cause a decrease”, the “increase in glucose yields” value ([1]; saccharification pH 5.0) was roughly 3.5% and the “increase in glucose yields” value ([1]; saccharification pH 6.0) was “not observed”.

`O=C(O)c1cc(O)c(O)c(O)c1` [gallic acid] was tested, and the “GH61 activity in generating soluble sugars from AVICEL® cellulose” value [2] was “improved” and the “GH61 activity in generating soluble sugars from PASC” value [3] was “improved”.

`O=O` [oxygen] was tested, and the “glucose yields, closed flask vs flask opened at 4 hrs and 24 hrs for fresh air” value [4] was “not a limiting factor”.

For TWEEN®-20, the “total glucose production in the saccharification reaction” value [5] was “enhanced”.

B1: GH61a: Wild-type M. thermophila C1 GH61a polypeptide (SEQ ID NO:2) (protein, listed as Myceliophthora thermophila)
chain: MSKASALLAGLTGAALVAAHGHVSHIVVNGVYYRNYDPTTDWYQPNPPTVIGWTAADQDNGFVEPNSFGTPDIICHKSATPGGGHATVAAGDKINIVWTPEWPESHIGPVIDYLAACNGDCETVDKSSLRWFKIDGAGYDKAAGRWAADALRANGNSWLVQIPSDLKAGNYVLRHEIIALHGAQSPNGAQAYPQCINLRVTGGGSNLPSGVAGTSLYKATDPGILFNPYVSSPDYTVPGPALIAGAASSIAQSTSVATATGTATVPGGGGANPTATTTAATSAAPSTTLRTTTTSAAQTTAPPSGDVQTKYGQCGGNGWTGPTVCAPGSSCSVLNEWYSQCL
B1 was tested, and the glucose yield [6] was “improvement in glucose yield”, the “Fold Improvement Over Whole Cellulase Broth Tested on PCS” value [7] was 2 (fold improvements of ≧1.5× to <1.7×) and the “improvement over whole cellulase broth on PWS, in words” value [8] was “greatest benefit”. For the same molecule, the “Fold Improvement Over Whole Cellulase Broth Tested on PWS” value ([8]; 74 g/L glucan, pH 5.0, 55° C., 50 μM copper) was 3 (fold improvements ≧1.7), the “GH61a-only activity (glucose production) when Cu^++ is included in the reaction” value (shortened to “GH61a-only activity (glucose production)”) ([9]; listed as M. thermophila-produced GH61a) was “improved” and the “GH61a-only activity (glucose production)” value ([9]; listed as wild-type GH61a) was “increase”.

B2: E104H/K167A (protein)
chain: B1 chain with E104H, K167A
With B2 the “GH61a-only activity (glucose production)” value [9] was “increase” and the “GH61a-only activity (glucose production)” value ([9]; listed as S. cerevisiae supernatant containing M. thermophila-GH61a) was “improved”.
